Patent US20120316071A1 (published 2012)
Each block holds one binder with its values, some of them ahead of it.

Experiments:
[1] = target: T1, rHuman HGF R/c-MET/Fc Chimera, CF (R&D Systems Cat#358-MT/CF) (human, UniProt P08581 25-932); assay: ECL Multispot (MSD) assay, antigen spotted on plate, 10 nM Fab; blank spot of this row 344
T1 construct: Bought reagent; also called HGF R/Fc; hepatocyte growth factor receptor; Fc part of the bought chimera not given

[2] = target: T2, rHuman Erythropoietin R/Fc Chimera, CF (R&D Systems Cat#963-ER) (human, UniProt P19235 25-250); assay: as above
T2 construct: Bought reagent; also called EPO R; EPO R/Fc; Fc part of the bought chimera not given
T2 sequence (looked up): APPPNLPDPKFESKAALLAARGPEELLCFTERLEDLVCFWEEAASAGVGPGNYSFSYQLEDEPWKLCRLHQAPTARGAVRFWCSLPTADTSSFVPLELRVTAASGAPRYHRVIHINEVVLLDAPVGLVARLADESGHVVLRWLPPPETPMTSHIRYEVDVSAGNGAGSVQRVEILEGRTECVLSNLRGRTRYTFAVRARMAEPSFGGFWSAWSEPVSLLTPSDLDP

[3] = target: T3, rHuman IGF-1 sR, CF (R&D Systems Cat#391-GR) (human, UniProt P08069 31-932); assay: as above
T3 construct: Bought soluble receptor; The column head prints only 'IGF-1'; also called insulin-like growth factor-1 soluble receptor

[4] = target: T4, rHuman ErbB2/Fc Chimera, CF (R&D Systems Cat#1129-ER) (human, UniProt P04626 23-652); assay: as above
T4 construct: Bought reagent; also called human epidermal growth factor 2 receptor; Fc part of the bought chimera not given

[5] = target: T5, rHuman EGF R/Fc Chimera, CF (R&D Systems Cat#344-ER) (human, UniProt P00533 25-645); assay: as above
T5 construct: Bought reagent; also called epidermal growth factor receptor; Fc part of the bought chimera not given

[6] = target: T6, rHuman Notch-1/Fc Chimera, CF (R&D Systems Cat#3647-TK) (human, UniProt P46531 19-526); assay: as above
T6 construct: Bought reagent; Fc part of the bought chimera not given

[7] = target: T7, rHuman P-Cadherin/Fc Chimera, CF (R&D Systems Cat#861-PC) (human, UniProt P22223 108-654); assay: as above
T7 construct: Bought reagent; Fc part of the bought chimera not given

[8] = target: T8, rHuman CD44/Fc Chimera, CF (R&D Systems Cat#3660-CD) (human, UniProt P16070 21-220); assay: as above
T8 construct: Bought reagent; Fc part of the bought chimera not given

[9] = target: T9, rHuman Notch-1/Fc Chimera, CF (R&D Systems Cat#3647-TK) (human, UniProt P46531 19-526); assay: MSD Multispot ECL, antigen spotted on plate, Fab 130 nM; blank spot 1153
T9 construct: Bought reagent; Fc part of the bought chimera not given

[10] = target: T10, rHuman Erythropoietin R/Fc Chimera, CF (R&D Systems Cat#963-ER) (human, UniProt P19235 25-250); assay: as above
T10 construct: Bought reagent; also called EPO R/Fc; EPO R; Fc part of the bought chimera not given
T10 sequence (looked up): T2 sequence (looked up)

[11] = target: T11, rHuman ErbB2/Fc Chimera, CF (R&D Systems Cat#1129-ER) (human, UniProt P04626 23-652); assay: as above
T11 construct: Bought reagent; also called human epidermal growth factor 2 receptor; Fc part of the bought chimera not given

[12] = target: T12, Recombinant Human DLL4 (R&D Systems Cat#1506-D4/CF) (human, UniProt Q9NR61 27-524); assay: ECL multispot (MSD) assay, spotted antigen; Fab 2.00 (head prints uM)
T12 construct: Bought recombinant protein; also called delta-like protein 4

[13] = target: T13, rHuman P-Cadherin/Fc Chimera, CF (R&D Systems Cat#861-PC) (human, UniProt P22223 108-654); assay: as above
T13 construct: Bought recombinant protein; Fc part of the bought chimera not given

[14] = target: T14, rHuman Erythropoietin R/Fc Chimera, CF (R&D Systems Cat#963-ER) (human, UniProt P19235 25-250); assay: as above
T14 construct: Bought recombinant protein; also called EPO R; EPO R/Fc; Fc part of the bought chimera not given
T14 sequence (looked up): T2 sequence (looked up)

[15] = target: T15, rHuman ErbB2/Fc Chimera, CF (R&D Systems Cat#1129-ER) (human, UniProt P04626 23-652); assay: as above
T15 construct: Bought recombinant protein; Fc part of the bought chimera not given

[16] = target: T16, rHuman HGF R/c-MET/Fc Chimera, CF (R&D Systems Cat#358-MT/CF) (human, UniProt P08581 25-932); assay: as above
T16 construct: Bought recombinant protein; also called HGF R/Fc; Fc part of the bought chimera not given

[17] = target: T17, rHuman CD44/Fc Chimera, CF (R&D Systems Cat#3660-CD) (human, UniProt P16070 21-220); assay: as above
T17 construct: Bought recombinant protein; Fc part of the bought chimera not given

[18] = target: T18, rHuman EGF R/Fc Chimera, CF (R&D Systems Cat#344-ER) (human, UniProt P00533 25-645); assay: as above
T18 construct: Bought recombinant protein; Fc part of the bought chimera not given

[19] = target: T19, rHuman Notch-1/Fc Chimera, CF (R&D Systems Cat#3647-TK) (human, UniProt P46531 19-526); assay: as above
T19 construct: Bought recombinant protein; Fc part of the bought chimera not given

- ECL signal [1]: 434
- ECL signal [2]: 389
- ECL signal [3]: 293
- ECL signal [4]: 356
- ECL signal [5]: 371
- ECL signal [6]: 363
- ECL signal [7]: 293
- ECL signal [8]: 417
B1: Fab VH1-46_IGHD6-6*01_IGHJ1*01 S102A/S103P/S104F (APF) & L6_IGKJ1*01 (Fab, V domains shown)
VH: QVQLVQSGAEVKKPGASVKVSCKASGYTFTSYYMHWVRQAPGQGLEWMGIINPSGGSTSYAQKFQGRVTMTRDTSTSTVYMELSSLRSEDTAVYYCAREEYAPFSAEYFQHWGQGTLVTVSS
VL: not shown
notes: Tested as a Fab made in E. coli; also called H:APF & L:wt; APF triple mutant

- ECL signal [9]: 1760
- ECL signal [10]: 2150
- ECL signal [11]: 1530
B2: Fab VH1-8_IGHD2-2*01_IGHJ6*01 & L12_IGKJ1*01 (Fab, V domains shown)
VH: QVQLVQSGAEVKKPGASVKVSCKASGYTFTSYDINWVRQATGQGLEWMGWMNPNSGNTGYAQKFQGRVTMTRNTSISTAYMELSSLRSEDTAVYYCARGGYCSSTSCYADYYYYYGMDVWGQGTTVTVSS
VL: not shown

- ECL signal/noise ratio [12]: 72.7
- ECL signal/noise ratio [13]: 4.3
- ECL signal/noise ratio [14]: 4.1
- ECL signal/noise ratio [15]: 3.2
- ECL signal/noise ratio [16]: 6
- ECL signal/noise ratio [17]: 3.5
- ECL signal/noise ratio [18]: 3.8
- ECL signal/noise ratio [19]: 1.9
B3: Fab VH5-51_IGHD5-18*01>3_IGHJ4*01 G100K/G104T & V3-4_IGLJ1*01 (Fab, V domains shown)
VH: EVQLVQSGAEVKKPGESLKISCKGSGYSFTSYWIGWVRQMPGKGLEWMGIIYPGDSDTRYSPSFQGQVTISADKSISTAYLQWSSLKASDTAMYYCARRKYSYTYDYFDYWGQGTLVTVSS
VL: QTVVTQEPSFSVSPGGTVTLTCGLSSGSVSTSYYPSWYQQTPGQAPRTLIYSTNTRSSGVPDRFSGSILGNKAALTITGAQADDESDYYCVLYMGSGISYVFGTGTKVTVL
notes: Tested as a Fab; The constant parts are the same as for the parent Fab (CH1 with His6/Flag tags, lambda CL); also called KT double mutant; H:KT
